Results taken from patent US20250382384A1.

Columns and labels:
[1] = target: cynomolgus MUC1 SEA domain protein (cynomolgus); test: SPR, antibody captured, cynoMUC1 SEA analyte
[2] = target: full-length cynomolgus MUC1 on stably transfected cells (cynomolgus); test: FACS (iQue3) on HEK293-cynoMUC1 cells
full-length cynomolgus MUC1 on stably transfected cells (cynomolgus), sequence (chain, as listed by the source limits assumed, form in doubt): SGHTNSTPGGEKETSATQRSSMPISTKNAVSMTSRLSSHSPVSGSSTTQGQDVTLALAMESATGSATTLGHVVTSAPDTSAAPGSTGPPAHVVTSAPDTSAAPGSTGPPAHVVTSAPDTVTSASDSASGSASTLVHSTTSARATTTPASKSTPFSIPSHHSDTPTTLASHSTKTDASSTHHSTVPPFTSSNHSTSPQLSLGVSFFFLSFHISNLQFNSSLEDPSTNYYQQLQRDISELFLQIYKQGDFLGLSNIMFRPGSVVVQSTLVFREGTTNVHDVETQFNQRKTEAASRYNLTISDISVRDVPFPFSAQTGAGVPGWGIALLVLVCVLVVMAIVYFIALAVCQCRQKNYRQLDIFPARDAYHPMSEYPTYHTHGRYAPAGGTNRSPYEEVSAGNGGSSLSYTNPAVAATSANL

B1: huBG138P-Hz2 (antibody, V domains shown)
VH: QVQLVQSGAEVKKPGASVKVSCKASGYTFTTYTMHWVRQAPGQRLEWMGYINPGSDYTHYNQKFKDRVTITADTSASTAYMELSSLRSEDTAVYYCARQGNYAAYYFDYWGQGTLVTVSS
VL: DIQMTQSPSSLSASVGDRVTITCRASGNIHNFLVWYQQKPGKSPKLLIYNAKTLTSGVPSRFSGSGSGTQYTLTISSLQPEDVATYYCQNFWNVPFTFGQGTKLEIK
Kd [1]: 6.67 nM
EC50 (read off the curve) [2]: 3 nM
